This is an account of results in US20170298096A1 (CANIMGUIDE THERAPEUTICS, published 2017).

No end group written: not given here.

T1: His-tagged P3028 (human, not fully specified)
T1 construct: the tag is put first after 'PGE73=His-tag-P3028'; also called PGE73; not shown: His-tag
T1 peptide: {His‑tag}-VFDEFKPLVEEPQNLIK

T2: His-tagged P3028 (human, also: His-tag, terminus and sequence not given here)
T2 construct: in solution at 0.5 ug/mL over the peptide cards; found with anti-His-tag antibody and rabbit anti-mouse peroxidase (rampo); also called PGE73; not shown: His-tag
T2 peptide: VFDEFKPLVEEPQNLIK

B1: P28R D4A (peptide)
peptide: KKLATFFVKLSLFTER
B2: P28R F6I (peptide)
peptide: KKLDTIFVKLSLFTER
B3: P28R E15R (peptide)
peptide: KKLDTFFVKLSLFTRR
B4: P28R E15F (peptide)
peptide: KKLDTFFVKLSLFTFR
B5: P28R D4H (peptide)
peptide: KKLHTFFVKLSLFTER
B6: P28R E15Q (peptide)
peptide: KKLDTFFVKLSLFTQR
B7: P28R E15S (peptide)
peptide: KKLDTFFVKLSLFTSR
B8: P28R E15Y (peptide)
peptide: KKLDTFFVKLSLFTYR
B9: P28R F6A (peptide)
peptide: KKLDTAFVKLSLFTER
B10: P28R D4F (peptide)
peptide: KKLFTFFVKLSLFTER
B11: P28R E15D (peptide)
peptide: KKLDTFFVKLSLFTDR
B12: P28R D4I (peptide)
peptide: KKLITFFVKLSLFTER
B13: P28R E15L (peptide)
peptide: KKLDTFFVKLSLFTLR
B14: P28R D4V (peptide)
peptide: KKLVTFFVKLSLFTER
B15: P28R F6D (peptide)
peptide: KKLDTDFVKLSLFTER
B16: P28R E15W (peptide)
peptide: KKLDTFFVKLSLFTWR
B17: P28R D4E (peptide)
peptide: KKLETFFVKLSLFTER
B18: P28R D4K (peptide)
peptide: KKLKTFFVKLSLFTER
B19: P28R E15A (peptide)
peptide: KKLDTFFVKLSLFTAR
B20: P28R E15I (peptide)
peptide: KKLDTFFVKLSLFTIR
B21: P28R E15M (peptide)
peptide: KKLDTFFVKLSLFTMR
B22: P28R D4Q (peptide)
peptide: KKLQTFFVKLSLFTER
B23: P28R E15V (peptide)
peptide: KKLDTFFVKLSLFTVR
B24: P28R F6M (peptide)
peptide: KKLDTMFVKLSLFTER
B25: P28R E15T (peptide)
peptide: KKLDTFFVKLSLFTTR
B26: P28R F6L (peptide)
peptide: KKLDTLFVKLSLFTER
B27: P28R F6H (peptide)
peptide: KKLDTHFVKLSLFTER
B28: P28R E15K (peptide)
peptide: KKLDTFFVKLSLFTKR
B29: P28R D4W (peptide)
peptide: KKLWTFFVKLSLFTER
B30: P28R D4N (peptide)
peptide: KKLNTFFVKLSLFTER
B31: P28R D4T (peptide)
peptide: KKLTTFFVKLSLFTER
B32: P28R F6K (peptide)
peptide: KKLDTKFVKLSLFTER
B33: P28R F6E (peptide)
peptide: KKLDTEFVKLSLFTER
B34: P28R E15N (peptide)
peptide: KKLDTFFVKLSLFTNR
B35: P28R E15H (peptide)
peptide: KKLDTFFVKLSLFTHR
B36: P28R D4Y (peptide)
peptide: KKLYTFFVKLSLFTER
B37: P28R D4S (peptide)
peptide: KKLSTFFVKLSLFTER
B38: P28R D4R (peptide)
peptide: KKLRTFFVKLSLFTER
B39: P28R D4L (peptide)
peptide: KKLLTFFVKLSLFTER
B40: P28R D4M (peptide)
peptide: KKLMTFFVKLSLFTER
B41: SEQ ID NO 508 (peptide)
peptide: KKLDTFFVKCSLFTER
B42: SEQ ID NO 512 (peptide)
peptide: KKLKTFFVKLSLFTER
B43: SEQ ID NO 522 (peptide)
peptide: KKLDTFFVKLFLFTER
B44: SEQ ID NO 509 (peptide)
peptide: KKLDTFFVMLSLFTER
B45: SEQ ID NO 529 (peptide)
peptide: KKLDTFFVKLSLFTEM
B46: SEQ ID NO 511 (peptide)
peptide: KKLDTFFVSLSLFTER
B47: SEQ ID NO 510 (peptide)
peptide: KSLDTFFVKLSLFTER
B48: SEQ ID NO 531 (peptide)
peptide: KKLDTFFVKLSLFTRR
B49: SEQ ID NO 521 (peptide)
peptide: KKLDTFFVKLSLFTEV
B50: SEQ ID NO 515 (peptide)
peptide: KKLGTFFVKLSLFTER
B51: SEQ ID NO 524 (peptide)
peptide: KKLDTFFVKLSLFTMR
B52: SEQ ID NO 530 (peptide)
peptide: KKLDKFFVKLSLFTER
B53: SEQ ID NO 525 (peptide)
peptide: KKLDTFFVKLSLFTLR
B54: SEQ ID NO 527 (peptide)
peptide: KKLDTFFVELSLFTER
B55: SEQ ID NO 514 (peptide)
peptide: KKLDTFFVKLSLFYER
B56: SEQ ID NO 528 (peptide)
peptide: KKLDTFFVKLSLFTEH
B57: SEQ ID NO 513 (peptide)
peptide: KKLDTFFQKLSLFTER
B58: SEQ ID NO 532 (peptide)
peptide: KKLDTFFVKLELFTER
B59: SEQ ID NO 523 (peptide)
peptide: KKLDTFFVVLSLFTER
B60: SEQ ID NO 519 (peptide)
peptide: KKLDTFFCKLSLFTER
B61: SEQ ID NO 526 (peptide)
peptide: KKLDTFFVWLSLFTER
B62: SEQ ID NO 520 (peptide)
peptide: KKLDTFFVKLSLFCER
B63: SEQ ID NO 518 (peptide)
peptide: KKLDTFFVNLSLFTER
B64: SEQ ID NO 517 (peptide)
peptide: KKLDTFFVKLSLFKER

The target of one test is T1, His-tagged P3028. Description: chip ELISA.
B1 registered an ELISA signal of 494. Same read-out and setting: under B2 stands 466; under B3, 237.

B4 came in with an ELISA signal of 137. The same measure, in the same setting: under B5 stands 317.

The molecule B6 displayed an ELISA signal of 344.

Turning to B7, the ELISA signal was 165. On the same count and under the same terms, the figure for B8 is 340. For the molecule B9, the ELISA signal came to 575. Same read-out and setting: the figure for B10 is 380; for B11 it is 404. Consider B12, for which the ELISA signal came out at 430. The same measure, in the same setting: under B13 stands 246. B14 had an ELISA signal of 424. In the case of B15, the ELISA signal worked out at 193.

B16: the ELISA signal came to 226. The same measure, in the same setting: under B17 stands 417; under B18, 274. Still for that read-out and setting: the figure for B19 is 174; for B20 it is 163; for B21 it is 247. Still for that read-out and setting: the figure for B22 is 345; for B23 it is 163; for B24 it is 467. The molecule B25 had an ELISA signal of 152. Still for that read-out and setting: under B26 stands 408. Same read-out and setting: the figure for B27 is 332. Turning to B28, the ELISA signal came out at 324. On the same count and under the same terms, under B29 stands 443; under B30, 296; under B31, 405. B32 had an ELISA signal of 309. The same measure, in the same setting: the figure for B33 is 229; for B34 it is 161. Same read-out and setting: the figure for B35 is 318; for B36 it is 422. Still for that read-out and setting: the figure for B37 is 344.

In turn, B38 displayed an ELISA signal of 317. On the same count and under the same terms, the figure for B39 is 303. For the molecule B40, the ELISA signal was determined as 384.

The next test deals with T2, His-tagged P3028. Kind of test: PEPSCAN chip ELISA, His-P3028 in solution.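 Note: score is the raw OD at 405 nm from peroxidase colour with ABTS, imaged by CCD camera before and after staining, with wells showing air bubbles set to zero.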
Protocol: After washing, the peroxidase substrate 2,2′-azine-di-3-ethylbenzthiazoline sulfonate (ABTS) and 2 μL of 3% H2O2 were added. The binding capacity of the mAb was measured as a color development at 405 nm (optical density, OD405). The color development was quantified with a charge-coupled device (CCD)—camera and an image processing system.
The OD405-values obtained by a CCD-camera was considered as raw data values (“rampo values,” “rampo units,” or “rampo scores”). […] First the CCD-camera made a picture of the card before peroxidase coloring and then again a picture after the peroxidase coloring. […] These values were copied into an excel file and labeled as a raw data file. One follow-up manipulation was allowed. Sometimes a well can contain an air-bubble resulting in a false-positive value. If manual inspection of the cards detect an air-bubble the value are set to 0 for that well.
On to B41, for which the “RAMPO Score” value was 283 rampo score. Consider B42, for which the “RAMPO Score” value was found to be 274 rampo score. On the same count and under the same terms, under B43 stands 250 rampo score; under B44, 283 rampo score. The same measure, in the same setting: under B45 stands 238 rampo score. On the same count and under the same terms, under B46 stands 274 rampo score; under B47, 281 rampo score. Take B48: the “RAMPO Score” value worked out at 237 rampo score.

As to B49, the “RAMPO Score” value was found to be 254 rampo score.

As for B50, the “RAMPO Score” value is 264 rampo score. Take B51: the “RAMPO Score” value was determined as 247 rampo score. Still for that read-out and setting: under B52 stands 237 rampo score; under B53, 246 rampo score; under B54, 240 rampo score.

As for B55, the “RAMPO Score” value was found to be 270 rampo score. As to B56, the “RAMPO Score” value is 239 rampo score. With B57, the “RAMPO Score” value worked out at 271 rampo score.

Turning to B58, the “RAMPO Score” value turned out to be 234 rampo score. The same measure, in the same setting: the figure for B59 is 248 rampo score; for B60 it is 254 rampo score. On the same count and under the same terms, the figure for B61 is 245 rampo score; for B62 it is 254 rampo score. On the same count and under the same terms, the figure for B63 is 256 rampo score; for B64 it is 259 rampo score.
